{
  "source": "patent US20060212953",
  "about": "“Tr2, tr4, tr2/tr4 double knockouts and uses thereof” (published 2006)",
  "target": "T1, TR4 (testicular orphan nuclear receptor 4, NR2C2) (UniProt P49116 SEQ:1-596)",
  "T1 sequence": "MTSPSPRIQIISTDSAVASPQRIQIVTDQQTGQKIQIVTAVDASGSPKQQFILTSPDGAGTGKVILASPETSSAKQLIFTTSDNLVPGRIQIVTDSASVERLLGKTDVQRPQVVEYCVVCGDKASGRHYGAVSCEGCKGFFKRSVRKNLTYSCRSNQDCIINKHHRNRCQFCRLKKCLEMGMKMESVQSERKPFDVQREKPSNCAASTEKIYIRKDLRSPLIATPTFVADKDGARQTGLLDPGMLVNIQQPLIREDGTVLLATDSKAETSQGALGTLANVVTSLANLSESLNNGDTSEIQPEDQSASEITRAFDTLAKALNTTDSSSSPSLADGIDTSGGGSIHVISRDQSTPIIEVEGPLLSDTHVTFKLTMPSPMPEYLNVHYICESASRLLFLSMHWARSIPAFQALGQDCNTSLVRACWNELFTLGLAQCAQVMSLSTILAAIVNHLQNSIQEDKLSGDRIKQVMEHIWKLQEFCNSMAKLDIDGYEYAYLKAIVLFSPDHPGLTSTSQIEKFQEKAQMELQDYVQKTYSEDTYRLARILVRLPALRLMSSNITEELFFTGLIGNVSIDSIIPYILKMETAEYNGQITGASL",
  "experiment": "EMSA; supershifted by monoclonal anti-TR4 antibody #15; 10 mM HEPES pH 7.9, 100 mM KCl, 2.5 mM MgCl2, 0.5 mM EDTA, 1 mM DTT, room temperature 15 min",
  "conditions": "tags: rabbit reticulocyte lysate (Promega); label: 32P 5' end",
  "description": "TR4 proteins were synthesized in rabbit reticulocyte lysate (Promega), according to the manufacturer's instructions. The oligonucleotide probe (SEQ ID NO:46 nNOS-NHR, bp-198 to -211, 5′-[…]-3′) was end-labeled with [γ]³²P in a T4 polynucleotide kinase reaction (New England Biolabs). The EMSA reaction was performed with 2 μl TR4-containing lysate in an EMSA buffer (10 mM HEPES, pH 7.9, 6% (v/v) glycerol, 2% (v/v) Ficoll, 100 mM KCl, 0.5 mM EDTA, 2.5 mM MgCl₂, and 1 mM dithiothreitol). The reaction mixtures were incubated for 15 min. at room temperature, in the presence or absence of a mouse monoclonal anti-TR4 antibody (#15). The protein-DNA complexes were analyzed on a 5% native polyacrylamide gel. The results were visualized by autoradiography (Storm PhosphorImaging System, Amersham Pharmacia).",
  "data": [
    {"binder": "nNOS-NHR probe (dsDNA) DNA 1: CTGGTCAACCTTGACTTCCTT DNA 2: AAGGAAGTCAAGGTTGACCAG", "values": [
      {"measurement": "binding result", "value": "binds"}
    ]}
  ]
}
